Reference: patent US20140038895A1 (UNIVERSITY OF QUEENSLAND, published 2014)
Where no end group is shown, it is not given here.

T1: human RXFP3 (human, UniProt Q9NSD7 1-469)
T1 construct: whole, on cells; also called GPCR135; RXFP3 receptor
T1 sequence (looked up): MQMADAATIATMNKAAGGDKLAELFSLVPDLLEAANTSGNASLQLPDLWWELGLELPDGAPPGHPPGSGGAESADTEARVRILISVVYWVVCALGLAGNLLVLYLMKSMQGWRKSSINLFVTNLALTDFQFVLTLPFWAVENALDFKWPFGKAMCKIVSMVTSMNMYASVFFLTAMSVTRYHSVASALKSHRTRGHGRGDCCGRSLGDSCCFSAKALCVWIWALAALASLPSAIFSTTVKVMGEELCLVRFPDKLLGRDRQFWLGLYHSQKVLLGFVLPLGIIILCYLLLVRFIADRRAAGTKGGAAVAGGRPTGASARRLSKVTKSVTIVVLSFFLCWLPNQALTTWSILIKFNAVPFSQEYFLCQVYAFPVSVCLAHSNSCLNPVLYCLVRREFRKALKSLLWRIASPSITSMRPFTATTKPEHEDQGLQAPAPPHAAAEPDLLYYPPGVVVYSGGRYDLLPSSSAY

T2: human RXFP1 (human, UniProt Q9HBX9 1-757)
T2 construct: whole, on cells; also called LGR7; RXFP1 receptor
T2 sequence (looked up): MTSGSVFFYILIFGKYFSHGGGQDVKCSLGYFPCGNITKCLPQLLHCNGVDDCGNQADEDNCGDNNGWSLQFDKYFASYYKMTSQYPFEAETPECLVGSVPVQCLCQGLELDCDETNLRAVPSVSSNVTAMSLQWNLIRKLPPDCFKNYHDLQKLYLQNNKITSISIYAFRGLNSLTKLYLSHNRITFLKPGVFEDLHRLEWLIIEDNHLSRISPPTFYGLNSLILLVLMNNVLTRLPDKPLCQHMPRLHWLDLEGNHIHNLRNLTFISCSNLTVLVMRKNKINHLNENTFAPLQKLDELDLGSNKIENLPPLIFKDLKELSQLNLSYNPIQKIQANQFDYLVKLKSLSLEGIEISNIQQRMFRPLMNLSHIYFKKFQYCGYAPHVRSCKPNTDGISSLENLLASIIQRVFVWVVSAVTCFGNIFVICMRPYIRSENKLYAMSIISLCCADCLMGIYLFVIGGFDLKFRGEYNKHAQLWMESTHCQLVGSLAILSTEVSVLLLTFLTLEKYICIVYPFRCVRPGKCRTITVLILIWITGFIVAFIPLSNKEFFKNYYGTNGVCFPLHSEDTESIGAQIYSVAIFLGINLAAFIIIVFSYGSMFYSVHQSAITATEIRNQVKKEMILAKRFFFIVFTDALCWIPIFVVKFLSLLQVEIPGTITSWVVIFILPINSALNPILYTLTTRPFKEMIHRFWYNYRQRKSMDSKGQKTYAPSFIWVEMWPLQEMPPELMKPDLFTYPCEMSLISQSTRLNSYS


Tests used:
human RXFP3 [1] = target: T1, human RXFP3; experiment: competition binding vs Eu-DTPA-R3/I5 on HEK-293T cells stably expressing human RXFP3, time-resolved fluorescence, n = 3
Protocol: (§1) Binding assays were carried out as follows. […] The cells were incubated at room temperature for 60 min before the peptide solution was aspirated off and the cells washed with PBS.

human RXFP3 [2] = target: T1, human RXFP3; experiment: competition binding vs Eu-DTPA-R3/I5 on HEK-293T cells expressing human RXFP3 (Table 2 cell: 'No activity')
Protocol: as §1

human RXFP1 = target: T2, human RXFP1; experiment: competition binding vs Eu-DTPA-H2 relaxin on HEK-293T cells transfected with RXFP1 (FIG. 7)
Protocol: as §1

pIC50 (human RXFP3 [1])	binding result (human RXFP3 [2])	binding result (human RXFP1)	Binder
6.37			YGVRLSGREFIRAVIFTSR-NH2 (Synthetic single chain peptide) [H3 B5-22R]
7.06			AAPYGVRLSGREFIRAVIFTSR-NH2 (Synthetic single chain peptide) [H3 B2-22R]
6.33			GVRLSGREFIRAVIFTSR-NH2 (Synthetic single chain peptide) [H3 B6-22R]
	no binding		VRLSGREFIRAVIFTSR-NH2 (Synthetic single chain peptide) [H3 B7-22R]
6.66			PYGVRLSGREFIRAVIFTSR-NH2 (Synthetic single chain peptide) [H3 B4-22R]
6.46			RAAPYGVRLSGREFIRAVIFTSR-OH (Synthetic single chain peptide) [H3 B1-22R Acid]
5.6			RAAPYGVRLSGREFIRAVIFTSGGSRW-OH (Synthetic single chain peptide; also called H3 relaxin B chain; native H3 B chain) [H3 B-chain C10/22S]
	no binding		RAAPYGVRLSGREFIRAVIFTS-NH2 (Synthetic single chain peptide) [H3 B1-22]
7.75		binds	RAAPYGVRLSGREFIRAVIFTSR-NH2 (Synthetic single chain peptide; also called R3 B1-22R; R3 1-22R) [H3 B1-22R]
6.83			RAAPYGVRLAGREFIRAVIFTAR-NH2 (Synthetic single chain peptide) [H3 B1-22R C10/22A]
6.71			APYGVRLSGREFIRAVIFTSR-NH2 (Synthetic single chain peptide) [H3 B3-22R]
